In experiment [1] the target is T1, human IL-12 (human, UniProt P29460 23-328; P29459 23-219).
T1 construct: Recombinant (Peprotech); FLAG-tagged IL-12 in the flow cytometry assays, biotinylated in the IL-12Rβ2 assay; also called hIL-12
T1 sequence 1: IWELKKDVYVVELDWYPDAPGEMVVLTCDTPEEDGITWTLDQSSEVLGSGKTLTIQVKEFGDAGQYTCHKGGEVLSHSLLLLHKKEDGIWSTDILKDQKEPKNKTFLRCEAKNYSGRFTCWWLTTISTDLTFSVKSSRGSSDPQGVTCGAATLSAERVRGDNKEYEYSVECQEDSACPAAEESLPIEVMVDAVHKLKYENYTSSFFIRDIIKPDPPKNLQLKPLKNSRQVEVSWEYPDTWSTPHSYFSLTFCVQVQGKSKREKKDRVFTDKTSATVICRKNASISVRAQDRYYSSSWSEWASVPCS
T1 sequence 2: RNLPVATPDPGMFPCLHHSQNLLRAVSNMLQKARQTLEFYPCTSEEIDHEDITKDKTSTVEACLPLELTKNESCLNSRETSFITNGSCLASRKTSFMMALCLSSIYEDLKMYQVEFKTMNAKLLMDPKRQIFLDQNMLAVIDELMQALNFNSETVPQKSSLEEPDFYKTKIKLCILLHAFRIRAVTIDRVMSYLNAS
The experiment in a line: ELISA, coated IL-12. Summed up:
(§1)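 Each value is an absorbance measuring binding. Plates (Maxisorp) carried cytokine coated at 1 μg/mL in carbonate buffer pH 9.6 overnight at 4° C, were blocked with 1% BSA in PBS for 1 hour at 25° C, and received antibody titrations for 1 hour at 25° C. Detection used goat anti-human IgG or anti-murine immunoglobulin HRP at 1:2000 for 1 hour, then TMB stopped with 1M HCl, with absorbance taken at 450 nm (reference 620 nm).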

Experiment [2] addresses T2, human IL-23 (human, UniProt P29460 23-328; Q9NPF7 20-189).
T2 construct: Recombinant (Ebioscience); HIS-tagged in flow cytometry, biotinylated in some assays; also called hIL-23; rhIL-23
T2 sequence 1: T1 sequence 1
T2 sequence 2: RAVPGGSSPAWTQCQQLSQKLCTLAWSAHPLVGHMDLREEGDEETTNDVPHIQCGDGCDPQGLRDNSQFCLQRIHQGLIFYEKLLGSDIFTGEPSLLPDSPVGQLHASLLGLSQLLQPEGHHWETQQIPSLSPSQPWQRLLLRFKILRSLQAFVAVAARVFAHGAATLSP
The experiment in a line: ELISA, coated IL-23. The method in brief: as §1

The target in experiment [3] is T2, human IL-23. The experiment in a line: ELISA, coated IL-23. Summed up: as §1
The source holds these as a separate data set.

The target in experiment [4] is T1, human IL-12. The experiment in a line: ELISA, coated IL-12. The method in brief:
as §1
The source holds these as a separate data set. A general note: An ELISA detects its analyte on a solid surface through an enzyme-linked reagent.

Experiment [5] concerns the target T2, human IL-23. As to the kind of experiment: SPR, IgG. The method, then: (§2) CU-A6 was converted to Antibody 183, CP-A6 was converted to Antibody 184 and AW-F2 was converted to Antibody 207 by addition of a human heavy chain Fc region (SEQ ID NO: 8) and a constant kappa light chain region (SEQ ID NO: 9). IgG molecules were expressed by co-transfecting the heavy and light chain construct for each antibody into HEK 293E cultures. The expressed IgGs were purified by affinity chromatography and gel exclusion and the resulting monomeric molecules were tested for IL-12 and IL-23 binding by SPR (TABLE 6). All three IgG variants retained binding activity against both analytes with a visible improvement in kd compared to the parental wild-type IgG. Based on this, it is reasonable to expect that scFv variants described in TABLE 4 could be converted to the IgG format and retain improved binding characteristics against IL-12 and IL-23.
(§3) Using a SPR 3000, Protein A was immobilized onto FC1 and FC2 (or alternatively FC3 and FC4) of a CM5 research grade sensor chip using amine coupling, giving approximately […] RU. FC1 was used a blank throughout the experiments. The experiments were run in HBS-P buffer (SPR). At a flow rate of 20 μl/min, 20 μl of 5 μg/mL of antibody was passed over FC2. IL-12, IL-23 or IL-12p40 (Peprotech) were passed over the surface of FC1 and FC2 at concentrations ranging from 66 nM to 2 nM. Regeneration of the surface was performed using 10 mM Glycine, pH 1.0. The sensorgram data from FC2 was subtracted from FC1 and a buffer only control. The curves were fitted using a 1:1 Langmuir equation to generate the kd, ka and KD values. All curves were fitted with a χ² of less then 2.0 where possible.

The target in experiment [6] is T1, human IL-12. The experiment in a line: SPR, IgG. The method, then: as §2, §3
A general note: In SPR one partner is held on a chip, and binding of the other changes the refractive index at the surface.

Positions count from the first letter of the chain named. Where two headings read alike, the source gives them in different places.

Broadly, the Kd is the concentration at which binding is half-saturated. As usually defined, the koff is the rate constant with which the complex falls apart. Low values mean a long-lived complex, high ones a short-lived complex. As a reminder, the kon is a measure of how fast the partners come together.

B1: Antibody 76 (antibody, human IgG1, kappa, V domains shown)
VH: EVQLVQSGAEVKKPGATVKISCKVSGYTFTDYYLHWVQQAPGKGLEWMGWIDPENGDTEYAPKFQGRVTITADTSTDTAYMELSSLRSEDTAVYYCNANKELRYFDVWGQGTMVTVSS
VL: EIVLTQSPATLSLSPGERATLSCRASQSISINLHWYQQKPGQAPRLLIYFASQSISGIPARFSGSGSGTDFTLTISSLEPEDFAVYYCQQSNSFPLTFGGGTKVEIKR
As for B1, the binding result with human IL-12 [1] and with human IL-23 [2] was “binds” in each case.

B2: Antibody 37 (antibody, human IgG1, kappa, V domains shown)
VH: B1 VH with L34M, N99C
VL: B1 VL with F94W
notes: Superhumanized, backmutated heavy chain
As to B2, the binding result in the experiment with human IL-23 [3] and in the experiment with human IL-12 [4] was “binds” throughout.

B3: Antibody 34 (antibody, human IgG1, kappa, V domains shown)
VH: B1 VH with L34M, N99C
VL: B1 VL with L4M, L13V, D70E, E79Q, P80S, F94W
For the molecule B3, the binding result in the experiment with human IL-23 [3] and in the experiment with human IL-12 [4] was “binds” each time.

B4: Antibody 78 (antibody, human IgG1, kappa, V domains shown)
VH: B1 VH with E1Q, T17S, I20V, F29L, Q38R, I70M, A72E, N97A, A98T
VL: B1 VL
B4: the binding result with human IL-12 [1] and with human IL-23 [2] was “binds” throughout.

B5: Antibody 81 (antibody, human IgG1, kappa, V domains shown)
VH: B1 VH with E1Q, T17S, I20V, F29L, Q38R, I70M, A72E, N97A, A98T
VL: B1 VL with L4M, L13V, D70E, E79Q, P80S
As to B5, the binding result in the experiment with human IL-12 [1] and in the experiment with human IL-23 [2] was “binds” throughout.

B6: Antibody 35 (antibody, human IgG1, kappa, V domains shown)
VH: B1 VH with E1Q, T17S, I20V, F29L, L34M, Q38R, I70M, A72E, N99C
VL: B1 VL with L4M, L13V, D70E, E79Q, P80S, F94W
For the molecule B6, the binding result in the experiment with human IL-23 [3] and in the experiment with human IL-12 [4] was “binds” in each case.

B7: Antibody 77 (antibody, human IgG1, kappa, V domains shown)
VH: QVQLVQSGAEVKKPGASVKVSCKASGYTFTDYYLHWVRQAPGQGLEWMGWIDPENGDTEYAPKFQGRVTMTTDTSTSTAYMELRSLRSDDTAVYYCNANKELRYFDVWGQGTMVTVSS
VL: B1 VL
Turning to B7, the binding result with human IL-12 [1] and in the experiment with human IL-23 [2] was “binds” throughout.

B8: Antibody 36 (antibody, human IgG1, kappa, V domains shown)
VH: B7 VH with L34M, N99C
VL: B1 VL with L4M, L13V, D70E, E79Q, P80S, F94W
With B8, the binding result with human IL-23 [3] and in the experiment with human IL-12 [4] was “binds” in each case.

B9: Antibody 79 (antibody, human IgG1, kappa, V domains shown)
VH: B1 VH
VL: B1 VL with L4M, L13V, D70E, E79Q, P80S
Consider B9, for which the binding result with human IL-12 [1] and in the experiment with human IL-23 [2] was “binds” in each case.

B10: Antibody 184 (antibody, human IgG1, kappa, V domains shown)
VH: B7 VH with Y60H
VL: B1 VL with L4M, L13V, D70E, E79Q, P80S
notes: also called CP-A6 as IgG
Consider B10, for which, in the experiment with human IL-23 [5], binding was put at a Kd of 0.104 nM, the koff came out at 4.2e-05 s⁻¹ and the on-rate constant (kon) was found to be 410000 M⁻¹ s⁻¹. In the experiment with human IL-12 [6], this molecule yielded a Kd of 0.127 nM, an off-rate (koff) of 0.00054 s⁻¹ and a kon of 4.2e+06 M⁻¹ s⁻¹.

B11: Antibody 40 (antibody, human IgG1, kappa, V domains shown)
VH: B1 VH with L34M, N97A, A98T, N99C
VL: EIVLTQSPDFQSVTPKEKVTITCRASQSISINLHWYQQKPDQSPKLLIKFASQSISGVPSRFSGSGSGTDFTLTINSLEAEDAATYYCQQSNSWPLTFGGGTKVEIKR
notes: Superhumanized PMA204
As for B11, the binding result in the experiment with human IL-23 [3] and with human IL-12 [4] was “binds” in each case.

B12: Antibody 207 (antibody, human IgG1, kappa, V domains shown)
VH: B7 VH with Y60S
VL: B1 VL with L4M, L13V, D70E, E79Q, P80S
notes: also called AW-F2 as IgG
As to B12, in the experiment with human IL-23 [5], the Kd amounted to 0.176 nM, the koff was determined as 6.5e-05 s⁻¹ and the kon stood at 370000 M⁻¹ s⁻¹. In the experiment with human IL-12 [6], binding was put at a Kd of 0.167 nM, the koff worked out at 0.00063 s⁻¹ and the kon was 3.7e+06 M⁻¹ s⁻¹.

(Values after patent US20110262445A1 (CEPHALON AUSTRALIA, published 2011).)
